Experiment [1] addresses SARS-CoV-2 full length spike protein, V367F mutant, expressed on CHO cells (SARS-CoV-2, UniProt P0DTC2 14-1273).
In experiment [2] the target is SARS-CoV-2 full length spike protein, D614G mutant, expressed on CHO cells (SARS-CoV-2, UniProt P0DTC2 14-1273).
Experiment [3] addresses SARS-CoV-2 full length spike protein, V367F mutant (SARS-CoV-2, UniProt P0DTC2 14-1273).
For experiment [4], the target named is SARS-CoV-2 full length spike protein, D614G mutant (SARS-CoV-2, UniProt P0DTC2 14-1273).

B1: antibody 410 (antibody, V domains shown)
VH: QVQLVQSGAEVKKPGASVKVSCKASGYTFTSYGISWVRQAPGQGLEWMGWISAYNGNTNYAQKLQGRVTMTTDTSTSTAYMELRSLRSDDTAVYYCARGRITIFGVEYYYGMDVWGQGTTVTVSS
VL: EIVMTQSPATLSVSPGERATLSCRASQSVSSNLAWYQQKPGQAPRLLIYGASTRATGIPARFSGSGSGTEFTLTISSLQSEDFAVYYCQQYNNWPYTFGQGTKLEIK
Consider B1, for which the “median fluorescence fold over isotype control” value (“median fluorescence fold” below) in experiment [1] came to 7.64 fold over isotype; in experiment [2] it was 17.9 fold over isotype.

B2: antibody 448 (antibody, V domains shown)
VH: QVQLVQSGAEVKKPGASVKVSCKASGYTFTSYGISWVRQAPGQGLEWMGWISAYNGNTNYAQKLQGRVTMTTDTSTSTAYMELRSLRSDDTAVYYCAIELLEGFYYYYGMDVWGQGTTVTVSS
VL: SYELTQPPSVSVSPGQTARITCSGDALPKQYAYWYQQKPGQAPVLVIYKDSERPSGIPERFSGSSSGTTVTLTISGVQAEDEADYYCQSADSSGTYPYVVFGGGTKLTVL
As to B2, the “median fluorescence fold” value in experiment [3] turned out to be 5.79 fold over isotype; in experiment [4], 13.3 fold over isotype.

B3: antibody 381 (antibody, V domains shown)
VH: QVQLVESGGGVVQPGRSLRLSCAASGFTFSSYAMHWVRQAPGKGLEWVAVISYDGSNKYYADSVKGRFTISRDNSKNTLYLQMNSLRAEDTAVYYCARDRQYYDILTGYYLPTSEYYFDYWGQGTLVTVSS
VL: DIQMTQSPSSVSASVGDRVTITCRASQGISSWLAWYQQKPGKAPKLLIYAASSLQSGVPSRFSGSGSGTDFTLTISSLQPEDFATYYCQQANSFPPTFGGGTKVEIK
Consider B3, for which the “median fluorescence fold” value in experiment [1] stood at 43.6 fold over isotype; in experiment [2], 67.9 fold over isotype.

B4: antibody 430 (antibody, V domains shown)
VH: QVHLVEAGGGVVQPGKSLRLSCAASGFIFSNFGMHWVRQSPGKGLEWVAVVSYDASVTKYSDSFEGRFTISRDNSKNTLYLQMDSLRPEDSAVYYCAKGQGANLLHDWGQGILVTVSS
VL: DVVLTQSPLSLPVTLGQPASISCRSSESLVYTDGDTYLHWFHQRPGQSPRRLIYKVSNRDSGVPDRFSGSGSGTDFTLRISRVEAEDVGVYYCMQGTHWPFTFGPGTKVDIK
For B4, the “median fluorescence fold” value in experiment [3] was determined as 38.3 fold over isotype; in experiment [4], 9.17 fold over isotype.

B5: antibody 399 (antibody, V domains shown)
VH: QVQLVQSGAEVKKPGASVKVSCKASGYTFTSYGISWVRQAPGQGLEWMGWISAYNGNTNYAQKLQGRVTMTTDTSTSTAYMELRSLRSDDTAVYYCARDSGYDWAGGHYYYYGMDVWGQGTTVTVSS
VL: QSALTQPASVSGSPGQSITISCTGTSSDVGGYNYVSWYQQHPGKAPKLMIYEVSNRPSGVSNRFSGSKSGNTASLTISGLQAEDEADYYCSSYTSSSTLVVFGGGTKLTVL
With B5, the “median fluorescence fold” value in experiment [1] stood at 30.6 fold over isotype; in experiment [2] it was 70.1 fold over isotype.

B6: antibody 433 (antibody, V domains shown)
VH: QVQLVESGGGVVQPGRSLRLSCAASGFTFSSYAMHWVRQAPGKGLEWVAVISYDGSNKYYADSVKGRFTISRDNSKNTLYLQMNSLRAEDTAVYYCAKDYEVVIAIGGPGAFDYWGQGTLVTVSS
VL: SYVLTQPPSVSVAPGKTARITCGGNNIGSKSVHWYQQKPGQAPVLVIYYDSDRPSGIPERFSGSNSGNTATLTISRVEAGDEADYYCQVWDSSSDHVVFGGGTKLTVL
As to B6, the “median fluorescence fold” value in experiment [3] was found to be 12.3 fold over isotype; in experiment [4], 23.1 fold over isotype.

B7: antibody 387 (antibody, V domains shown)
VH: QVQLVESGGGVVQPGRSLRLSCAASGFTFSSYGMHWVRQAPGKGLEWVAVISYDGSNKYYADSVKGRFTISRDNSKNTLYLQMNSLRAEDTAVYYCAKDDTKNYGDLDIDYWGQGTLVTVSS
VL: SYELTQPSSVSVSPGQTARITCSGDVLAKKYARWFQQKPGQAPVLVIYKDSERPSGIPERFSGSSSGTTVTLTISGAQVEDEADYYCYSAADNNLGVFGGGTKLTVL
Take B7: the “median fluorescence fold” value is 6.69 fold over isotype in experiment [1] and 15.9 fold over isotype in experiment [2].

B8: antibody 438 (antibody, V domains shown)
VH: EVQLVESGGGLVQPGGSLRLSCAASGFTFSSYSMNWVRQAPGKGLEWVSYISSSSSTIYYADSVKGRFTISRDNAKNSLYLQMNSLRAEDTAVYYCARDRGYSDYGPYYYGMDVWGQGTTVTVSS
VL: not shown
B8: the “median fluorescence fold” value turned out to be 44 fold over isotype in experiment [3] and 71.2 fold over isotype in experiment [4].

B9: antibody 404 (antibody, V domains shown)
VH: QVQLVESGGGVVQPGRSLRLSCAASGFTFSSYGMHWVRQAPGKGLEWVAVIWYDGSNKYYADSVKGRFTISRDNSKNTLYLQMNSLRAEDTAVYYCARLAVDISFDGSDGMDVWGQGTTVTVSS
VL: SYELTQPPSVSVSPGQTARITCSGDALPKKYAYWYQQKSGQAPVLVIYEDSKRPSGIPERFSGSSSGTMATLTISGAQVEDEADYYCYSTDSSGKGVFGTGTKVTVL
Turning to B9, the “median fluorescence fold” value in experiment [1] was found to be 27.4 fold over isotype; in experiment [2], 6.02 fold over isotype.

B10: antibody 401 (antibody, V domains shown)
VH: QVQLVQSGAEVKKPGSSVKVSCKASGGTFSSYAISWVRQAPGQGLEWMGRIIPILGIANYAQKFQGRVTIIADKSTSTAYMELSSLRSEDKAVYYCAREGKSDSSSALWYFDLWGRGTLVTVSP
VL: not shown
Consider B10, for which the “median fluorescence fold” value in experiment [1] was determined as 35.5 fold over isotype; in experiment [2] it was 8.76 fold over isotype.

B11: antibody 394 (antibody, V domains shown)
VH: QVQLVQSGAEVKKPGASVKVSCKASGYTFTGYYMHWVRQAPGQGLEWMGWINPNNGGTNSAQKFQGRVTMTRDTSISTAYMELNRLRSDDTAVYYCARDITTTAGTDYYYGMDVWGQGTTVTVSS
VL: SYELTQPPSVSVSPGQTARITCSGDALPKQYAYWYQQKPGQAPVLVICKDSERPSGIPERFSGSSSGTTVTLTISGVQAEDEADYYCQSADSSGTYIVFGTGTKVTVL
Turning to B11, the “median fluorescence fold” value in experiment [1] is 37.8 fold over isotype; in experiment [2], 63.4 fold over isotype.

B12: antibody 440 (antibody, V domains shown)
VH: EVQLLESGGGLVQPGGSLRLSCAASGFTFSSYAMSWVRQAPGKGLEWVSAISGSGVNTYHADSVKGRFTISRDNSRNTLYLQMSSLTAEDTAAYYCAKDFEAASGAYYYYGMDVWGQGTTVTVSS
VL: SYELTQPPSVSVSPGQTARITCSGDALPDQYAYWYQQKPGQAPVVVIYKDRERPSGIPERFSGSNSGTTVTLTISGVQAEDEADYYCQSADSSATYVVFGGGTKLTVL
For B12, the figures for the “median fluorescence fold” value in experiment [3] and in experiment [4] were 7.17 fold over isotype and 15.8 fold over isotype, respectively.

B13: antibody 397 (antibody, V domains shown)
VH: QVQLVESGGGVVQPGRSLRLSCAASGFTFSSYGMHWVRQAPGKGLESVAVISYDGSNKYYADSVKGRFTISRDNSKNTLYLQMNSLRAEDTAVYYCAKEGQWELQGNAFDIWGQGTMVTVSS
VL: SYELTQPPSVSVSPGQTARITCSGDALPKQYAYWYQQKPGQAPVLVIYKDSERPSGIPERFSGSSSGTTVTLTISGVQAEDEADYYCQSGDSSGTYRVFGGGTKLTVL
As to B13, the figures for the “median fluorescence fold” value in experiment [1] and in experiment [2] were 32.8 fold over isotype and 7.97 fold over isotype, respectively.

B14: antibody 441 (antibody, V domains shown)
VH: EVQLVESGGGVVRPGGSLRLSCAASGFTFGDYGMSWVRQAPGKGLEWVSGINWNGGSTGYADSVKGRFTISRDNAKNSLYLQMNSLRAEDTALYYCASDLVRGVIGFDYWGQGTLVTVSS
VL: SYELTQPPSVSVSPGQTARITCSGDALPKQYAYWYQQKPGQAPVLVIYKDSERPSGIPERFSGSSSGTTVTLTISGVQAEDEADYYCQSADSSGITGVFGGGTKLTVL
Consider B14, for which the “median fluorescence fold” value was 6.24 fold over isotype in experiment [3] and 14.9 fold over isotype in experiment [4].

B15: antibody 391 (antibody, V domains shown)
VH: EVQLVESGGGLVQPGGSLRLSCAASGFTFSSYWMHWVRQAPGKGLVWVSRINSDGSSTSYADSVKGRFTISRDNAKNTLYLQMNSLRAEDTAVYYCALGPLDIVGSYYYYGMDVWGQGTTVTVSS
VL: NFMLTQPHSVSESPGKTVTISCTGSSGSIASNYVQWYQQRPGSAPTTVIYEDNQRPSGVPDRFSGSIDSSSNSASLTISGLKTEDEADYYCQSYDSSNQDVVFGGGTKLTVL
With B15, the “median fluorescence fold” value worked out at 18.8 fold over isotype in experiment [1] and 35.6 fold over isotype in experiment [2].

B16: antibody 402 (antibody, V domains shown)
VH: QVQLVQSGAEVKKPGASVKVSCKVSGYTLTELSMHWVRQAPGKGLEWMGGFDPEDVETIYAQKFQGRVTMTEDTSTDTAYMELSSLRSEDTAVYYCATGVAVVGTSHSYYYYYGMDVWGQGTTVTVSS
VL: DIQMTQSPSSLSASVGDRVTITCRASQGISNYLAWYQQKPGKVPKLLIYAASTLQSGVPSRFSGSGSGTDFTLTISSLQPEDVATYYCQKYNSAPFTFGPGTKVDIK
Take B16: the “median fluorescence fold” value in experiment [1] is 46.9 fold over isotype; in experiment [2], 67.8 fold over isotype.

B17: antibody 449 (antibody, V domains shown)
VH: not shown
VL: QSALTQPASVSGSPGQSITISCTGTSSDVGGYNYVSWYQQHPGKAPKLMIYEVSNRPSGVSNRFSGSKSGNTASLTISGLQAEDEADYYCSSYTSSSTVVFGGGTKLTVL
As to B17, the “median fluorescence fold” value in experiment [3] is 36.9 fold over isotype; in experiment [4], 68.1 fold over isotype.

B18: antibody 451 (antibody, V domains shown)
VH: EVQLVESGGGLVQPGGSLRLSCAASGFTFSTYWMSWVRQAPGKGLEWVANIKQDGSEKYYVDSVKGRFTISRDNAKNSLYLQMNSLRAEDTAVYYCARLGGSSWYFDYWGQGTLVTVSS
VL: not shown
As to B18, the “median fluorescence fold” value in experiment [3] came out at 29.9 fold over isotype; in experiment [4], 6.29 fold over isotype.

B19: antibody 453 (antibody, V domains shown)
VH: QVQLVESGGGVVQPGRSLRLSCAASGFTFSSYAMYWVRQAPGKGLEWVAVISYDGSNKYYADSVKGRFTISRDNSKNTLYLQMNSLRAEDTAVYYCARDRPHYYGSGRKILNLYGMDVWGQGTTVTVSS
VL: DIQLTQSPSFLSASVGDRVTITCRASQGISSYLAWYQQKPGKAPKLLIYAASTLQSGVPSSFSGSGSGTEFTLTISSLQPEDFATYYCQQLNSYPPFTFGPGTKVDIK
B19: the “median fluorescence fold” value came out at 39.4 fold over isotype in experiment [3] and 7.41 fold over isotype in experiment [4].

For the origin of these results see US20210292393A1 (published 2021).
